Reference: the nanobody polyreactivity screen of Harvey et al. (2022)

Test: yeast display, Sf9 membrane polyspecificity reagent, FACS + sequencing; frameworks hold sequencing errors
How it was run: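 Genes from sorted yeast were amplified by colony PCR, read by MiSeq 2 × 250 sequencing and filtered on CDR length. These cells carried a synthetic nanobody library in Saccharomyces cerevisiae BJ5465 and were sorted by FACS into low and high (top ~1%) gates on anti-HA and streptavidin fluorescence. Polyreactivity is labelled according to the gate of origin.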

| Sequence | polyreactivity (PSR sort gate) |
| --- | --- |
| QVQLVESGGGLVQAGGSLRLSCAASGFIFSYYAMGGYRQAPGKERELVAAITSGGSTNYADSVKGRLTISRDNAKNTFYLQMNSLKPEDTAVYYCAAERGDTAYLKYDYCGQGTQVTVSS | low polyreactivity |
| QVQLVESGGGLVQAGGSLRLSCAASGRTFDYYSMGWYRQAPGTERELVAAISSSGGRTYYADSVKGRFTISRDNAKNTVYLQMNSLKPEDTAVYYCNAVVSRNYEYWGQGTQVTVSS | high polyreactivity |
| QVQLVESGGGLVQAGGSLRLSCAASGSNFRYYAMGWYRQAPGTERELVADISSGGSTYYADSVKGRFTISRDNAKNTVYLQMNRLKPEDTAVYYCKADYYAYPWTNDYWGQGTQVTVSS | high polyreactivity |
| QVQLVESGGGLVQAGGSLRLSCAASGRTFASYVMGWYRQAPGKERELVAAIDWHTGSTYYADSVKGRFTISRDNAKNTVYLQMNSLKPEDTAVYYCAAVYFLYPEGYWQTLYEYYYWGQGTQVTVSS | low polyreactivity |
| QVQLVESGGGLVQAGGSLRLSCAASGIIFWRYAMGWYRQAPGKERELDAGITSRGGSTYYADSVKGRFTISRDNAKNTVYLQMNSLKPEDTAVYYCNAPRGSRRSYRRTEYYYWGQGTQVTVSS | high polyreactivity |
| QVQLVESGGGLVQAGGSLRLSCAASGIFRYYAMGWYRQAPGKERELVATITRSSGSTYYADSVKGRFTISRDNAKNTVYLQMNSLKPEDTAVYYCAARGPYFNRGTRYDYWGQGTQVTVSS | high polyreactivity |
| QVQLVESGGGLVQAGGSLRLSCAASGRTYGYAMGWYRQAPGKERELVARNTWRGGSTSYADSVKGRFTISRDNAKNTVYLQMNSLKPEDTAVYYCAATYGTGRRSKYGYWGQGTQVTVSS | high polyreactivity |
| QVQLQDSGGGLVQAGGSLRLSCAASGTIIWYSDLGWYRQAPGKERKFVAGIGFGSNSNFADSVRGRFTISRDNAKITVYLQMNSLKPEDTAVYYCEAVWFDYSTHRYWGQGTQVTVCS | high polyreactivity |
| QVQLVESGGGLVQAGGSLRLSCAASGRTFALNVMGWYRQAPGKERELVAAISRSGGSTYYADSVTGRFTISRDNAKNTVYFQMNSLKPEDTAVYYGAAATHYQSYNRRDYWGEGTQVTVSS | high polyreactivity |
| QVQLVESGGGLVQAGGSRRLSCAASGGIFNYYTMGWYRQATGKERELVAAINSSGGNTHYADSVKGRFTISRDNAKNTVYLQMYSLKPEDTAVYYCNADARSVWFYRVDYWGQGTQVTVSS | low polyreactivity |
| QVQLVESGGGLVQAGGSLRLSCAASGRTFRGNAMGWYRQAPGKERELVAAISRRGVSTYYADSVKGRFTISRDNAKNTVYLQMNSLKPEDTAVYYCAVVVYQGFRSKYYYWGQGTQVTVSS | high polyreactivity |
| QVQLVESGGGLVQAGGSLRLSCAASGITFVKNAMGWYRQAPGKERELVARIRIGGSTSYADSVKGRFTISRDNAKNTVYLQMISLKPEDTAVYYCARYAGRLSYRYEYWGQGTQVTVSS | high polyreactivity |
| QVQLVESGGGLVQAGGSLRLSCAASGSIFNYTMGWYRQGPAQERQLVAVISRSGGRTYYADSVKGRFTISRDNAKNTVYLQMNSLKPEDTAVYYCATDGHNGYYGRYDYWGHGTQVTVSS | high polyreactivity |
| QVQLVESAGGLVQAGGSLRLSCAASGGIFVFYAMGWYRQAPGKERELVAAITYRGGSTSYADSVKGRFTISRDHAKNTVYLQLNSVKPEDTAVYYCAAAFYAKGQRYGYWGHGTQVTVSS | high polyreactivity |
| QVQLVESGGGLVQAGGSLRLSCAASGSIFYRYAMGWYRQAPGKERELVASISSGVSTNYADSVKGRFTISRDNAKNTVYLQLNSLKPEDTAVYYCAVRHRYTRAYWGRDYWGQGTQVTVSS | low polyreactivity |
| QVQLEDSGGGLDQAGGSLRLSCAASGITFIRYAMVWYRQAPGKERELVAAIPTSGSSKFYADSVKGRFTISRDNAKNTVYLQMNSLKPEDTAVYYCAAVFRWARLYTFYGSKVDYWGQGTQVTVSS | high polyreactivity |
| QVQLVESGGGLVQAGGSLRLSCAASGRIFYPNAMGWYRQAPGKERELVAGISRSGGSTYYADSVKGRFTISRDNAKNTVYLQMNSLKPEVTAVFYCAARYYASDRHFRGDYWGQGTQVTVSS | low polyreactivity |
